In US20110293610A1 (published 2011):

Target: T1, biotinylated B Lymphocyte Stimulator, soluble form (human, UniProt Q9Y275 134-285, biotinylated with NHS-biotin, molar ratio 20:1 biotin:protein)
T1 construct: also called bio-B Lymphocyte Stimulator; free B Lymphocyte Stimulator
Experiment: phage scFv, receptor binding inhibition on IM9 cells
Protocol: Fifty-five μl of each appropriate phage supernatant was added to each well and the final volume in each well was 65 μl. Plates were then incubated at room temperature for 30 minutes.
Plates were washed three times in PBST and three times in PBS, tapped dry and 50 μl of streptavidin-Delfia (Wallac) was added to each well at 1:1000 dilution in the Manufacturer's assay buffer. The plates were then incubated at room temperature for 1 hour and washed six times in Delfia wash solution (Wallac). After tapping the plates dry, 100 μl per well of Delfia enhancement solution (Wallac) was added. The plates were gently tapped to encourage micelle formation, incubated at room temperature for 10 minutes, and fluorescence read on a Wallac 1420 workstation at […].

| Binder | binding result |
| --- | --- |
| I031F02 (scFv) scFv: QVQLVQSGAEVRKPGSSVKVSCKASGGSFSSHVFSWVRQAPGQGLEWVGGITPKFATPNYAQKFQHRVTITADELTRTVFMDLSGLRSEDTAVYYCARGYDSSAFRAFDIWGQGTMVTVSSGGGGSGGGGSGGGGSAQSVLTQPPSVSGAPGQRVTISCTGSSSNIGAGYDVQWYQQLPGTAPKLLIHGNNNRPSGVPDRFSGSKSGTSASLAITGLQDEDEADYYCQSYDSSLSFSGYVFGTGTKVTVLG | binds |
| I008B01 (scFv) scFv: QVQLVQSGAEVMKPGASVKVSCKASGYNFNNYAMQWVRQAPGQRLEWMGWIVPGNGKTKYSQKFQDRVTIARDTSASTVYMELSSLTSEDTAMYYCARATYDPLTGYSFDGFDIWGQGTTVTVSSGGGGSGGGGSGGGGSQSVLTQPASVSGSPGQSITISCTGTSSDVGGYNYVSWYQQHPGKAPKLMIYEGSKRPSGVSNRFSGSKSGNTASLTISGLQAEDEADYYCSSYTTRSTRVFGGGTKLTVLG | binds |
| I017D10 (scFv) scFv: RVQLVQSGAEVKKPGASVKVSCKASGYTFTSDHISWVRQAPGQGLEWMGWISPHHGKTNYAQKLQGRVTMTTDTSTSTAYMELRSLRSDDTAVYYCARVQMDSEYYDLLTGINVGPYYFDYWGKGTLVTVSSGGGGSGGGGSGGGGSSELTQDPAVSVALGQTVRITCQGDSLRSYYASWYQQKPGQAPVLVIYGKNNRPSGIPDRFSGSSSGNTASLTITGAQAEDEADYYCNSRDSSGNHVVFGGGTKLTVLG | binds |
| I026E03 (scFv) scFv: EVQLVQSGGEVKRPGASVKVSCKASGYTFSRYGISWVRQAPGQGLEWMGWISAYNGKTSFAEKFQGRVTLTTDTSTTTVDMELRNLRSDDTAVYYCARTDYDILTGYPMGYFDPWGKGTLVTVSSGGGGSGGGGSGGGGSALSSELTQDPAVSVALGQTVKITCQGDSLRSFYAAWYQQKPGQAPILVISGKNNRPSGIPDRFSGSSSGNTASLTITGAQAEDEADYYCNSRDTSGNHYVFGAGTKLTVLG | binds |
| I031F09 (scFv) scFv: QVQLVQSGAEVKKPGASVKVSCTVSGDSFSRHGISWVRQAPGQGLEWMGWISVYNGDTKYAQKVQGRVTMTTDTSTNTVYMELRRLRSDDTAVYYCARDEGRDLLTGYYWPNFFDSWGRGTLVTVSSGGGGSGGGGSGGGGSALSYVLTQPPSASGTPGQRVTISCSGSRPNIGGNTVNWYQQLPGAAPKLLIYSNSQRPSGVPDRFSGSKYGTSASLAISGLQSDDEADYYCAAWDDSLTGPVFGGGTKLTVLG | binds |
| I031G11 (scFv) scFv: QVQLVQSGAEVKKPGASVKVSCTVSGDSFSRHGISWVRQAPGQGLEWMGWISVYNGDTKYAQKVQGRVTMTTDTSTNTVYMELRRLRSDDTAVYYCARDEGRDLLTGYYWPNFFDSWGRGTLVTVSSGGGGSGGGGSGGGGSALSYVLTQPPSVSGTPGQKVTISCSGSRPNIGGNTVNWYQQLPGAAPKLLIYSNSQRPSGVPDRFSGSKYGTSASLAISGLQSDDEADYYCAAWDDSLTGPVFGGGTKLTVLG | binds |
| I007B03 (scFv) scFv: GVQLQQSGAEVKKPGSSVKVSCKASGGTFNTSGITWVRQAPGQGLEWMGWMNPNTGDTAYAQEFQGRVIMTRDTSISTAYMELSSLRSEDTAVYYCARDGSYDILTGYYIDNYMDVWGQGTMVTVSSGGGGSGGGGSGGGGSQSVLTQPASVSGSPGQSITISCTGTSSDVGGYNYVSWYQQHPGKAPKLMIYEGSKRPSGVSNRFSGSKSGNTASLTISGLQAEDEADYYCSSYTTRSTRVFGGGTKLTVLG | binds |
| I008A09 (scFv) scFv: GVQLVQSGGGVVQPGGSLRLSCAASGFTFSSYGMHWVRQAPGKGLEWVAVISYDGSNKYYADSVKGRFTISRDNSKNTLYLQMNSLRAEDTAVYYCARDREAYYDILTGYYLYYYYMDVWGRGTTVTVSSGGGGSGGGGSGGGGSQSVLTQPASVSGSPGQSITISCTGTSSDVGGYNYVSWYQQHPGKAPKLMIYEGSKRPSGVSNRFSGSKSGNTASLTISGLQAEDEADYYCSSYTTGSTRVFGGGTKLTVLG | binds |
| I016E05 (scFv) scFv: QVQLQQSGAEVKKPGASVKVSCKASGYTFTKYTMHWVRQAPGQGPEWMGWINGGSGDTKYSRKFQGRVTITKDTSASAAYMELSSLGSEDTALYYCARATYDPLTGYSFDGFDIWGKGTMVTVSSGGGGSGGGGSGGGGSQSALTQPASVSGSPGQSITISCTGTSSDVGGYNYVSWYQQHPGKAPKLMIYEGSKRPSGVSNRFSGSKSGNTASLTISGLQAEDEADYYCSSYTTRSTRVFGGGTKLTVLG | binds |
| I018H08 (scFv, also called 1018H08) scFv: QVQLQQSGAEVKKPGASVNVSCKASGYTFTKYTMHWVRQAPGQGPEWMGWINGGSGDTKYSRKFQGRVTITKDTSASAAYMELSSLGSEDTALYYCARATYDPLTGYSFDGFDIWGQGTMVTVSSGGGGSGGGGSGGGGSQSVLTQPASVSGSPGQSITISCTGTSSDVGGYNYVSWYQQHPGKAPKLMIYEGSKRPSGVSNRFSGSKSGNTASLTISGLQAEDEADYYCSSYTTRSTRVFGGGTKLTILG | binds |
| I018H09 (scFv) scFv: QVQLQQSGAEVKKPGASVKVSCKASGYTFTKYTMHWVRQAPGQGPEWMGWINGGSGDTKYSRKFQGRVTITKDTSASATYMELSSLGSEDTALYYCARATYDPLTGYSFDGFDIWGKGTMVTVSSGGGGSGGGGSGGGGSQSVLTQPASVSGSPGQSITISCTGTSSDVGGYNYVSWYQQHPGKAPKLMIYEGSKRPSGVSNRFSGSKSGNTASLTISGLQAEDEADYYCSSYTTRSTRVFGGGTKLTVLG | binds |
| I001C09 (scFv) scFv: GVQLVQSGPEVKKPGASVKVSCTASGYTFTSYGVSWVRQAPGQGLEWIGWISAHNGQTKYAEKFQGRVTMTRNTSISTAYMELSSLRSEDTAVYYCARDGSYDILTGYYIDNYMDVWGKGTMVTVSSGGGGSGGGGSGGGGSSELTQDPAVSVALGQTVRITCQGDSLRSYYTNWFQQKPGQAPLLVVYAKNKRPSGIPDRFSGSSSGNTASLTITGAQAEDEADYYCHSRDSSGNHVLFGGGTKLTVLG | binds |
| I018C10 (scFv) scFv: GVQLVQSGPEVKKPGASVKVSCTASGYTFTSYGVSWVRQAPGQGLEWIGWISAHNGQTKYAEKFQGRVTMTRNTSISTAYMELSSLRSEDTVVYYCARDGSYDILTGYYIDNYMDVWGKGTMVTVSSGGGGSGGGGSGGGGSSELTQDPAVSVALGQTVRITCQGDSLRSYYTNWFQQKPGQAPLLVVYAKNKRPSGIPDRFSGSSSGNTASLTITGAQAEDEADYYCHSRDSSGNHVLFGGGTKLTVLG | binds |
| I018D07 (scFv) scFv: GVQLVQSGPEVKKPGASVIVSCTASGYTFTSYGVSWVRQAPGQGLEWIGWISAHNGQTKYAEKFQGRVTMTRNTSISTAYMELSSLRSEDTAVYYCARDGSYDILTGYYIDNYMDVWGKGTMVTVSSGGGGSGGGGSGGGGSSELTQDPAVSVALGQTVRITCQGDSLRSYYTNWFQQKPGQAPLLVVYAKNKRPSGIPDRFSGSSSGNTASLTITGAQAEDEADYYCHSRDSSGNHVLFGGGTKLTVLG | binds |
| I016H07 (scFv) scFv: GVQLVQSGAEVKKPGASVKVSCKASGYTFTHYAINWLRQAPGQRPEWMGTINTGNGNTKYSQNFQGRLTITRDTSASTVNMELSSLRSEDTAVYYCAGGYHDPLTSYNYNWFDPWGQGTMVTVSSGGGGSGGGGSGGGGSSELTQDPAVSVALGQTVRITCQGDSLRSYYTNWFQQKPGQAPLLVVYAKNKRPSGIPDRFSGSSSGNTASLTITGAQAEDEADYYCHSRDSSGNHVLFGGGTKLTVLG | binds |
| I037E07 (scFv) scFv: QVQLVQSGAEVKKPGASVKVSCKASGYTFTNYGITWVRQAPGQGLEWMGWISAYNGNRNYAQKLQGRVTMTTDTSTSTAYMELRSLRSDDTAVYYCVRDGIDILLVPAALMDVWGRGTMVTVSSGGGGSGGGGSGGGGSQSVLTQPASVSGSPGQSITISCTGTSSDVGGYNYVSWYQQHPGKAPKLMIYEGSKRPSGVSNRFSGSKSGNTASLTISGLQAEDEADYYCSSYTTRSTRVFGGGTKLTVLG | binds |
| I037E12 (scFv) scFv: EVQLVQSGAEVKKPGASVKVSCKASGYTFTNYGITWVRQAPGQGLEWMGWISAYNGNRNYAQKLQGRVTMTTDTSTSTAYMELRSLRSDDTAVYYCVRDGIDILLVPAALMDVWGKGTLVTVSSGGGGSGGGGSGGGGSQSVLTQPASVSGSPGQSITISCTGTSSDVGGYNYVSWYQQHPGKAPKLMIYEGNKRPSGVSNRFSGSKSGNTASLTISGLQAEDEADYYCSSYTTRSTRVFGGGTKLTVLG | binds |
| I021B05 (scFv) scFv: QVQQSGADVKKPGGSLRLSCAASGFTFSSYSMNWVRQAPGKGLEWVSSISSSSSYIYYADSVKGRFTISRDNAKNSLYLQMNSLRAEDTAVYYCAREGGNYDILTGYYIGNGAFDIWGRGTMVTVSSGGGGSGGGGSGGGGSQSVLTQPASVSGSPGQSITISCTGTSSDVGGYNYVSWYQQHPGKAPKLMIYEGSKRPSGVSNRFSGSKSGNTASLTISGLQAEDEADYYCSSYTTRSTRVFGGGTKLTVLG | binds |
| I050A12 (scFv) scFv: EVQLVQSGAEVKKPGSSVKVSCKASGDTFSHYAINWVRQAPGQGLEWMGGIIPTFNAVKYAQKFQGRATITADGSTSTAYMELNSLRSEDTAVYYCATAPYDLLTHYFHYFDYWGQGTMVTVSSGGGGSGGGGSGGGGSALSSELTQDPAVSVTLGQTVRITCQGDSLRSYYPSWYQQKPGQAPVLVIYPKNIRPSGIPDRFSGSSSGNTASLTITGAQAEDEADYYCNSRASSGNHYVFATGTKLTVLG | binds |
